2 substances from publication PMC5505973 can be followed below.

This series relates to Tal7 (His-Tal7) (Xanthomonas oryzae pv. oryzicola RS105). The experiment in a line: MST.

What is called Kd is a measure of binding affinity in units of concentration. Read a high Kd as a looser complex. Os09g29100 promoter MST fragment yielded a Kd of 2.26 µM.

Regarding Os12g42970 promoter MST fragment, the dissociation constant (Kd) was 2.93 µM.
